Results reported in US20050123549A1 (IMMUNOGEN, published 2005).

Experiments:
[1] = target: T1, Muc1 mucin carrying the CA6 sialoglycotope (human, UniProt P15941 24-1255, sialylated O-linked carbohydrate carrying the CA6 epitope; positions not stated); assay: flow cytometry on WISH cells, apparent Kd
T1 construct: whole, on cells; Target of DS6 on CA6-positive human cell lines (flow cytometry) and in their lysates (dot blots, immunoprecipitation); also called CA6 antigen; DS6 antigen
Protocol: (§1) Human cell lines were obtained from the American Type Culture Collection (ATCC) with the exception of OVCAR5 (Kearse et al., Int. J. Cancer 88(6):866-872 (2000)), OVCAR8 and IGROV1 cells (M. Seiden, Massachusetts General Hospital). All cells were grown in RPMI 1640 supplemented with 4 mM L-glutamine, 50 U/ml penicillin, 50 μg/ml streptomycin (Cambrex Bio Science, Rockland, Me.) and 10% v/v fetal bovine serum (Atlas Biologicals, Fort Collins, Colo.), referred hereafter as culture media. Cells were maintained in a 37° C., 5% CO₂ humidified incubator.
(§2) Cells ([…]) were incubated, on ice for 3-4 h, with serially diluted concentrations of the DS6 antibody prepared in FACS buffer (2% goat serum, RPMI) into 96-well plates. The cells were spun down in a table top centrifuge at 1500 rpm for 5 min at 4° C. After removing the media, the wells were then refilled with 150 μl of FACS buffer. The wash step was then repeated. FITC-labeled goat anti-mouse IgG (Jackson Immunoresearch) was diluted 1:100 to FACS buffer and incubated with the cells for 1 h on ice. The plate was covered in foil to prevent photobleaching of the signal. After two washes, the cells were fixed with 1% formaldehyde and analyzed on a flow cytometer.

[2] = target: T1, Muc1 mucin carrying the CA6 …; assay: flow cytometry on ZR-75-1 cells, apparent Kd
Protocol: as §1, §2

[3] = target: T1, Muc1 mucin carrying the CA6 …; assay: flow cytometry on SW1990 cells, apparent Kd
Protocol: as §1, §2

[4] = target: T1, Muc1 mucin carrying the CA6 …; assay: competition flow cytometry on WISH cells; competitor 2 nM biotin-muDS6, streptavidin-DTAF
Protocol: To confirm that the huDS6 versions retains the affinity of muDS6, competitive binding experiments were conducted. […] In some cases, the experimentally measured apparent Kd can vary simply because of the secondary reagent used to indirectly detect binding.

[5] = target: T1, Muc1 mucin carrying the CA6 …; assay: flow cytometry on Caov-3 cells, apparent Kd
[6] = target: T1, Muc1 mucin carrying the CA6 …; assay: flow cytometry on T98G cells, apparent Kd
Protocol: as §2

[7] = target: T1, Muc1 mucin carrying the CA6 …; assay: flow cytometry on KB cells, apparent Kd
[8] = target: T1, Muc1 mucin carrying the CA6 …; assay: flow cytometry on KB cells, apparent Kd; remark: listed apart in the source
[9] = target: T1, Muc1 mucin carrying the CA6 …; assay: flow cytometry on HeLa cells, apparent Kd
[10] = target: T1, Muc1 mucin carrying the CA6 …; assay: flow cytometry on PC-3 cells, apparent Kd
Protocol: as §1, §2

[11] = target: T1, Muc1 mucin carrying the CA6 …; assay: flow cytometry on HeLa cells, apparent Kd; remark: listed apart in the source
[12] = target: T1, Muc1 mucin carrying the CA6 …; assay: cell-based or functional assay
[13] = target: T1, Muc1 mucin carrying the CA6 …; assay: flow cytometry on HPAC cells, apparent Kd
Protocol: as §2

[14] = target: T1, Muc1 mucin carrying the CA6 …; assay: flow cytometry on Caov-4 cells, apparent Kd
Protocol: as §2

[15] = target: T1, Muc1 mucin carrying the CA6 …; assay: flow cytometry on WISH cells, apparent Kd; remark: listed apart in the source
[16] = target: T1, Muc1 mucin carrying the CA6 …; assay: flow cytometry on SU.86.86 cells, apparent Kd
Protocol: as §2

[17] = target: T1, Muc1 mucin carrying the CA6 …; assay: flow cytometry on WISH cells, direct binding
[18] = target: T1, Muc1 mucin carrying the CA6 …; assay: flow cytometry on OVCAR5 cells, apparent Kd
Protocol: as §2

[19] = target: T1, Muc1 mucin carrying the CA6 …; assay: flow cytometry on BT-483 cells, apparent Kd
Protocol: as §2

[20] = target: T1, Muc1 mucin carrying the CA6 …; assay: flow cytometry on MDA-MB-157 cells, apparent Kd
Protocol: as §1, §2

- Kd [1]: 2.38 nM
- Kd [2]: 4.3 nM
- Kd [3]: 0.368 nM
- EC50 [4]: 12.2 nM
- Kd [5]: 5.48 nM
- Kd [6]: 0.177 nM
- Kd [7]: 0.111 nM
- Kd [8]: 1.11 nM
- Kd [9]: 0.694 nM
- Kd [10]: 0.136 nM
- Kd [11]: 0.694 nM
- Kd [13]: 23.5 nM
- Kd [14]: 4.04 nM
- Kd [15]: 2.38 nM
- Kd [16]: 1.04 nM
- Kd [17]: 1.93 nM
- Kd [18]: 1.47 nM
- Kd [19]: 13.7 nM
- Kd [20]: 0.197 nM
B1: murine DS6 anti-CA6 monoclonal antibody (antibody, IgG1, V domains shown)
VH: QAYLQQSGAELVRSGASVKMSCKASGYTFTSYNMHWVKQTPGQGLEWIGYIYPGNGATNYNQKFKGKATLTADPSSSTAYMQISSLTSEDSAVYFCARGDSVPFAYWGQGTLVTVSA
VL: QIVLTQSPAIMSASPGEKVTITCSAHSSVSFMHWFQQKPGTSPKLWIYSTSSLASGVPARFGGSGSGTSYSLTISRMEAEDAATYYCQQRSSFPLTFGAGTKLELKR
notes: Whole murine monoclonal IgG from the DS6 hybridoma (ATCC PTA-4449); the 3' heavy chain cloning primer was BamIgG1 and the light chain primer was kappa; also called DS6 antibody; muDS6
- indirect cell viability assay, DS6 with anti-mouse IgG (H+L) DM1 conjugate, Caov-3 cells, IC50 [12]: 0.425 nM
